Source: patent US7101851 (dated 2006)
Bridges are numbered along the chain shown (N, C = ends). Where no end group is shown, it is not given here.

Experiments:
FcεRI-IgG [1] = target: T1, FcεRI-IgG (UniProt P12319 26-205); experiment: g3 phage ELISA on immobilized FcεRI-IgG
T1 construct: extracellular domain; Produced from CHO cells (Genentech); also called FcεRI-Fc; bivalent fusion protein of the extracellular domain of FcεRI and the Fc domain of IgG; not shown: Fc domain of IgG
T1 sequence (looked up): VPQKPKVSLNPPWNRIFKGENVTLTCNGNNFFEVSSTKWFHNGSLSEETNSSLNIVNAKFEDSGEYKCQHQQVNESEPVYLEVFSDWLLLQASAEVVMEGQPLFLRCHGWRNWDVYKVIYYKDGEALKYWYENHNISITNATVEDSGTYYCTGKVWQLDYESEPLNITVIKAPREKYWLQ

FcεRI-IgG [2] = target: T1, FcεRI-IgG; experiment: competitive phage ELISA: g3 peptide-phage on immobilized FcεRI-IgG, soluble FcεRI-IgG titrated
Procedure: (§1) This oligonucleotide was annealed with a g3 single stranded DNA phagemid template. The mutagenesis reaction was transformed into XL-1 Blue *E. coli* and plated on LB-carb+ agar plates. Individual colonies were propagated in 5 mL of 2YT broth, tetracycline, carbenicillin and VCSM13 helper phage (Stratagene). Single stranded DNA was isolated from the purified phage particles and sequenced to confirm the insertion of the phage peptide sequence. 25 mL preparations of g3 phage clones were propagated overnight and purified by PEG precipitation. After resuspension of the phage pellet in 1.0 mL of PBS, it was serially diluted 1/3 and incubated with immobilized FcεRI-IgG 2 ug/mL in a 96 well Maxisorp microtiter plate for 1 hour at room temperature. The wells were washed 10× with PBST then incubated with 100 uL of anti M13 phage HRP as described above. An OD(492) value corresponding to less than 50% binding was selected and the purified phage clones were diluted to yield this normalized level of signal. […] The mixture was then transferred to 96 well microtiter dishes containing immobilized FcεRI-IgG. After a 1-hour incubation period, the plates were washed 10 times, incubated with anti M13-HRP conjugated antibody and developed with OPD as described above.
(§2) In addition, stepwise N-terminal and C-terminal truncations of the peptide sequence were constructed. All constructs were made by designing oligonucleotides corresponding to the desired substitution or truncation, with an additional 18 bp of DNA overlapping the peptide or g3 phage DNA sequence. The phage clones were propagated overnight following infection in XL-1 Blue *E. coli*. Purified phage preparations were titered and assayed for binding to immobilized receptor. FcεRI-IgG competition assays were performed as described above.

FcεRI-IgG [3] = target: T1, FcεRI-IgG; experiment: competitive phage ELISA; relative to g3c.42
Procedure: as §1, §2

[4] = target: T2, extracellular domain of the alpha subunit of the human FcεRI (aa 1-176), produced in baculovirus infected … (human, UniProt P12319 26-201, N-linked carbohydrate (NAG on Asn21 seen in the crystal); derivatised with PDEA for thiol coupling to the chip in the biosensor assay); experiment: SPR biosensor (BIAcore), peptide over immobilized FcεRIα; Kd (apparent) calculated from kon and koff
T2 construct: range 1-176; Residues 1-176 are probably counted without the signal peptide; also called FcεRIα; soluble FcεRI
T2 sequence (looked up): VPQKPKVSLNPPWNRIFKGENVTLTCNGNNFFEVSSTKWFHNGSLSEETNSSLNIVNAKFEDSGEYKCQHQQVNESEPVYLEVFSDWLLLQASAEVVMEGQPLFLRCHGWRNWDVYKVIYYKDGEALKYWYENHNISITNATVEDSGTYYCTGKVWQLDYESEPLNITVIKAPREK
Procedure: *peptide is a dimer. SEQ ID NO: describes each monomer of the dimer. "ava" = amino-valeric acid Several peptides were also tested in a direct-binding assay using a surface plasmon resonance biosensor (Lofas & Johnsson, *J. Chem. Soc. Commun.* 21, 1526–1528 (1990)). FcεRIα, produced in baculovirus infected insect cells, was immobilized by the surface thiol method (BIAcore Methods Manual Supplement 5a, BIAcore, Inc., Piscataway, N.J.). Briefly, receptor was reacted with 2-(2-pyridinyldithio)ethaneamine hydrochloride (PDEA; Natake & Swaisgood, *J. Biochem.* 74, 77–86 (1973)), desalted into 10 mM sodium acetate (pH 4.8) and stored in aliquots at −80° C. Thawed PDEA-receptor was injected over carboxymethyl-dextran (B1 or CM5, BIAcore, Inc.) biosensor chips preactivated with N-ethyl-N'-(3-dimethylaminopropyl)-carbodiimide hydrochloride (EDC) and N-hydroxysuccinimide (NHS), cystamine, and DTT. […] Serial dilutions of peptide in running buffer (phosphate-buffered saline containing 0.05% Tween-20, 0.01% sodium azide) were injected over the immobilized receptor, and the net amount of peptide bound at steady-state was measured as the net change in response (RU) at a point just prior to termination of peptide injection, compared to a running-buffer baseline. […] In the case of IGE134 (SEQ ID NOS:), the value shown indicates the Kd calculated from the rate constants, $kon$ and $koff$. […]

[5] = target: T3, alpha subunit of the human FcεRI receptor expressed on cells (human, UniProt P12319 26-257); experiment: cell-based or functional assay
T3 sequence (looked up): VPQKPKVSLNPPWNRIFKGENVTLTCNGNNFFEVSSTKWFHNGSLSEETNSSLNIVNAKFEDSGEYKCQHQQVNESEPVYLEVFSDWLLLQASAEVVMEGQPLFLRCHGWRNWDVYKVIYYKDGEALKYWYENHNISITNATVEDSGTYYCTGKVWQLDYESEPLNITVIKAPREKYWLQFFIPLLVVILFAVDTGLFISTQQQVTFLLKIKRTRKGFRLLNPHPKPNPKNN

[6] = target: T3, alpha subunit of the human FcεRI …; experiment: inhibition of 125I-IgE binding to CHO cells expressing FcεRI alpha; 7-10 days after dissolving, when the homodimer had formed
Procedure: (§3) To determine the ability of peptides to inhibit IgE binding to FcεRI, a cell-based binding assay was used with radiolabeled IgE. Chinese hamster ovary cells expressing the alpha subunit of the human FcεRI receptor were cultured overnight in Falcon 96 well microtiter plates at a concentration of 5 ×10^4 cells per well. The following day the cells were rinsed three times with PBS and then once with F12/DMEM. Peptide stocks were reconstituted in 100 mM Hepes buffered water, pH 7.2, at a concentration of 5 mg/mL. Working concentrations of the peptide were diluted in assay buffer (see below). 75 uL of a desired concentration of peptide was added to the top row of a separate 96 well microtiter plate and serially diluted 1:3 in 50 uL of the assay buffer (F12/DMEM, 1% BSA, 0.05% NaN_3 and 0.025 mM Hepes pH 7.2). Starting concentrations ranged from 50–500 uM. Next, 50 uL of the diluted peptide was transferred to the 96 microtiter well plate containing a monolayer of CHO FcεRI+ cells. […] Cells were
The size of each peptide was confirmed by mass spectrometry. […] This increase over time was not observed with the other peptides.

[7] = target: T3, alpha subunit of the human FcεRI …; experiment: inhibition of 125I-IgE binding to CHO cells expressing FcεRI alpha; freshly dissolved peptide (monomer)
Procedure: as §3, with “Cells were […]” for “Cells were”

[8] = target: alpha subunit of the human FcεRI receptor expressed on cells (human) (UniProt P12319); experiment: IgE inhibition assay (Table 9)
[9] = target: T3, alpha subunit of the human FcεRI …; experiment: inhibition of 125I-IgE binding to CHO cells expressing human FcεRI alpha
Procedure: as §3
Alanine substitutions in IGE063 (SEQ ID NO:49) were used to assess sidechain contributions. The P9A (IGE070, SEQ ID NO:52) substitution had the largest impact with a >500× reduction in binding. […] Clearly the alanine substitutions at G8, P9, W10, G11 and W12 all had major impacts on binding FcεRI.

[10] = target: T4, extracellular domain of the alpha subunit of the human FcεRI (aa 1-176), baculovirus-derived (human, UniProt P12319 26-201); experiment: competitive phage ELISA: peptide-phage with soluble FcεRI on FcεRI-coated plate
T4 construct: range 1-176; also called soluble FcεRI; baculovirus-derived FcεRI
T4 sequence (looked up): T2 sequence (looked up)
Procedure: Phage ELISA assays were carried out as described (Lowman, 1998, supra), using Nunc Maxisorp™ plates coated with a 2 μg/mL solution of baculovirus-derived FcεRI. Peptide-phage were pre-incubated for 5–10 min with serial dilutions of receptor, then added to the receptor-coated plate. After incubation for 1 h at room temperature, the plates were washed and an anti-phage HRP-conjugated antibody (Pharmacia) was added. After further incubation for 20 min, plates were again washed and developed using the substrate OPD (Sigma). Optical density at 492 nm was read and plotted as a function of FcεRI concentration to determine an $IC50$ of inhibition by each peptide-phage variant.

B1: g3c.21 peptide-phage (peptide)
peptide: CTEGPWGWVCMAAD
modifications: not fully specified; cysteine pairing not given here
notes: Monovalent g3p phage display; not shown: fused to M13 gene-3 protein (g3p) on phage
binding result (FcεRI-IgG [1]): no binding

B2: g3c.1 peptide-phage (peptide)
peptide: LPRCTEGPWGWVCMAAD
modifications: not fully specified; cysteine pairing not given here
notes: as for B1
IC50 (FcεRI-IgG [2]): 3 nM | Relative (IC50) (fold weaker) (FcεRI-IgG [3]): 1 fold

VQCPHFCYELDYELCPDVCYV-NH2 (disulfide 7-15, 3-19, also called peptide) [IGE134]
Kd [4]: 32 nM

B3: g3c.17 peptide-phage (peptide)
peptide: RCTEGPWGWVCMAAD
modifications: not fully specified; cysteine pairing not given here
notes: as for B1
binding result (FcεRI-IgG [1]): no binding

NLPRCTEGPWGWVCM (disulfide 5-14 (inferred)) [peptide NLPRCTEGPWGWVCM (SEQ ID NO:27)]
IC50 of inhibition of ragweed induced histamine release (RBL-48 cells, ragweed specific IgE) [5]: 13000 nM

B4: g3c.29 peptide-phage (peptide)
peptide: NLPRCTEGPWGWVCMAA
modifications: not fully specified (bridges); cysteine pairing not given here
notes: as for B1
IC50 (FcεRI-IgG [2]): 5 nM | Relative (IC50) (fold weaker) (FcεRI-IgG [3]): 1 fold

B5: g3c.31 peptide-phage (peptide)
peptide: NLPRCTEGPWGWVCMA
modifications: not fully specified (bridges); cysteine pairing not given here
notes: as for B1
IC50 (FcεRI-IgG [2]): 6.1 nM | Relative (IC50) (fold weaker) (FcεRI-IgG [3]): 1 fold

B6: IGE037 (peptide)
peptide: ALCPAVCYV-NH2
modifications: disulfide 3-7 (inferred); also: reshuffles over 3-12 days into disulfide-linked homodimer, held to be active form
notes: Made as a cyclic monomer
IC50 [6]: 25000 nM | IC50 [7]: ~300000 nM

ALCPAVCYV-NH2 (also: antiparallel disulfide-linked homodimer, interchain C3-C7' and C7-C3') [IGE089]
IC50 of inhibition of ragweed induced histamine release (RBL-48 cells, 0.1 nM ragweed specific human IgE) [5]: 8000 nM

B7: IGE143 (peptide)
peptide: VQCPHFCYVGGHALCADVCYVGR
modifications: disulfide (positions not given here); also: two intramolecular disulfide bonds, pairing not given here
fold loss in activity against its control peptide [8]: > 100 fold

NLPRCTEGPWGWVCMAAD (disulfide 5-14 (inferred), also called optimized peptide) [synthetic peptide NLPRCTEGPWGWVCMAAD (SEQ ID NO:18)]
IC50 [9]: 1000 nM | fold improvement over the … (SEQ ID NO:1) peptide [9]: > 160 fold | fold improvement over the … (SEQ ID NO:8) peptide [9]: 40 fold | IC50 of inhibition of ragweed induced histamine release (RBL-48 cells, ragweed specific IgE) [5]: 10000 nM

B8: g3c.34 peptide-phage (peptide)
peptide: NLPRCTEGPWGWVCM
modifications: not fully specified; cysteine pairing not given here
notes: not shown: fused to M13 gene-3 protein (g3p) on phage
IC50 (FcεRI-IgG [2]): 14.6 nM | Relative (IC50) (fold weaker) (FcεRI-IgG [3]): 3 fold

B9: IGE120-phage (IVCPRLCYVGGKALCPDVCYV displayed as a fusion to g3p of bacteriophage M13) (peptide)
peptide: IVCPRLCYVGGKALCPDVCYVGGGSGGGGSGSGDY
notes: not shown: g3p of bacteriophage M13, continuing after residue 257 of the mature protein
Relative IC50 [10]: 1 fold, relative to IGE120-phage
